From patent US20090098570A1 (Daiichi Sankyo, published 2009)
No end group written: not given here. *: point of attachment. Biotin = O=C1N[C@H]2[C@H](CS[C@H]2CCCCC(=O)*)N1

T1: His-LXRα/FLAG-RXRα heterodimer (ligand binding domains of human LXRα and human RXRα) (human, UniProt Q13133 164-447; P19793 201-462)
T1 construct: Co-expressed in E. coli BL21(DE3) from pET15b-LXRα/FLAG-RXRα and purified together on Ni2+ resin; also called His-LXRα and FLAG-RXRα; heterodimer comprising LXRα and RXRα
T1 sequence 1: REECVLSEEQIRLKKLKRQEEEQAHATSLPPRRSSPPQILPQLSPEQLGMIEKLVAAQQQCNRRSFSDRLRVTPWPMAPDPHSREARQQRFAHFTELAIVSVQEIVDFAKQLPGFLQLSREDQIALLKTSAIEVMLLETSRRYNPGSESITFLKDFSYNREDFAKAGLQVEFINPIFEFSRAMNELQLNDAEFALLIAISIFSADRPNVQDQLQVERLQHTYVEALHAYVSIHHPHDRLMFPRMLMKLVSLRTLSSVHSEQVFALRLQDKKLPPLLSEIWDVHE
T1 sequence 2: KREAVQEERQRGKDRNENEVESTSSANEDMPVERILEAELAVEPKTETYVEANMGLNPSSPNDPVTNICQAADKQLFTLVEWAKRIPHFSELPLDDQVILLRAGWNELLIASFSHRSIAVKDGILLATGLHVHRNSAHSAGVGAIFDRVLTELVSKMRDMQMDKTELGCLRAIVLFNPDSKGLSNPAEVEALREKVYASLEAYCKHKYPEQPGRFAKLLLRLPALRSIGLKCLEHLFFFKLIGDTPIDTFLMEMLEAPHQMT

T2: His-LXRβ/FLAG-RXRα heterodimer (ligand binding domains of human LXRβ and human RXRα) (human, UniProt P55055 155-460; P19793 201-462, limits assumed)
T2 construct: Co-expressed in E. coli BL21(DE3) from pET15b-LXRβ/FLAG-RXRα and purified together on Ni2+ resin; also called His-LXRβ and FLAG-RXRα; heterodimer comprising LXRβ and RXRα
T2 sequence 1: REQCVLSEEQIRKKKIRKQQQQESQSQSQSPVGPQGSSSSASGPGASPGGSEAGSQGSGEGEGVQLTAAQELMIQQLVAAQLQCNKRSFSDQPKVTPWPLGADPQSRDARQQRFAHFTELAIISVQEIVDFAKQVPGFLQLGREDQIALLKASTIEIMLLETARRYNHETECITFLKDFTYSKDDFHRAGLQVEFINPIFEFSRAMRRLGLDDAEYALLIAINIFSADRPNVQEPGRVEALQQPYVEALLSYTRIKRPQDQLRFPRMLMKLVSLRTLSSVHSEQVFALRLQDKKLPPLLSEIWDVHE
T2 sequence 2: T1 sequence 2

T3: His-LXRβ/FLAG-RXRα heterodimer (ligand binding domains of human LXRβ and human RXRα) (human) (UniProt P55055)
T3 sequence 1: T2 sequence 1
T3 sequence 2: T1 sequence 2


Each binder was assayed against T1, His-LXRα/FLAG-RXRα heterodimer (ligand …) (assay: FRET (665/620 nm), anti-His tag antibody + streptavidin, biotinylated peptide; with Compound B, relative to DMSO-only control).
Experimental: (§1) Next, 10 μl of peptide reaction solution (1.00 μl of 5 μM peptide, 1.00 μl of 10× PBS, 2.50 μl of 2 M KF, 0.10 μl of 10% NP40, 0.20 μl of streptavidin (CIS Bio International) and 5.20 μl of H₂O) were added to each well of the 384-well assay plate and incubated for 17 hours at 4° C. The peptide added here was comprising of any of the amino acid sequences of (a) to (g) below, and the amino acid of the N-terminal was biotinylated.
(§2) The value obtained by multiplying 1000 by the value resulting from dividing the measured value at 665 nm when applying excitation light at 337 nm by the measured value at 620 nm was determined. This value was then divided by the value determined by the same method when only DMSO was added without adding LXR ligand (Compound A or Compound B), and this value was then multiplied by 100 and indicated as the percentage relative to the control (% of control) as shown in Table 6.
(§3) (1) According to the same method as Example 2) (using the following peptides (h) to (m), instead of the peptides (a) to (g) in Example 2), the amount of coactivator bound to the heterodimer LXRα and RXRα were determined.

Binder	% of control
Biotin-CCFCGEDHPRQGSILYSLLTSSKQT (cysteine pairing not given here) [DAX1 peptide CCFCGEDHPRQGSILYSLLTSSKQT (aa 132-156)]	107 % of control
Biotin-KNPTSCSRRFYQLTKLLDSVQPIAR [PNRC peptide KNPTSCSRRFYQLTKLLDSVQPIAR (aa 848-872)]	110 % of control
Biotin-KQEPVSPKKKENALLRYLLDKDDTK [TIF2 NRB2 peptide KQEPVSPKKKENALLRYLLDKDDTK (aa 731-755)]	127 % of control
Biotin-GHGEDFSKVSQNPILTSLLQITGNG [TRAP220 peptide GHGEDFSKVSQNPILTSLLQITGNG (aa 590-614)]	107 % of control
Biotin-HSKASWAEFSILRELLAQDVLCD [PERC NRB2 peptide HSKASWAEFSILRELLAQDVLCD (aa 332-354)]	104 % of control
Biotin-SPKKKENNALLRYLLDRDDPSDALSK [ACTR NRB3 peptide SPKKKENNALLRYLLDRDDPSDALSK (aa 728-753)]	92 % of control

These binders were tested against T1, His-LXRα/FLAG-RXRα heterodimer (ligand …) (assay: FRET (665/620 nm), anti-His tag antibody + streptavidin, biotinylated peptide; with Compound A, relative to DMSO-only control).

Binder	% of control
Biotin-DGTPPPQEAEEPSLLKKLLLAPANT [PGC-1α peptide DGTPPPQEAEEPSLLKKLLLAPANT (aa 130-154)]	362 % of control
Biotin-SPAMREAPTSLSQLLDNSGAPNVTIKPPGL (also called ASC2 MR-2) [ASC-2 NR-2 peptide SPAMREAPTSLSQLLDNSGAPNVTIKPPGL (LXXLL motif on the C-terminal side of ASC-2)]	254 % of control
Biotin-CPSSHSSLTERHKILHRLLQEGSPS [SRC-1-2 peptide CPSSHSSLTERHKILHRLLQEGSPS (the second LXXLL motif from the N-terminal side of SRC-1)]	267 % of control
Biotin-KESKDHQLLRYLLDKDEKDL [SRC-1-3 peptide KESKDHQLLRYLLDKDEKDL (the third LXXLL motif from the N-terminal side of SRC-1)]	181 % of control
Biotin-QKPTSGPQTPQAQQKSLLQQLLTE [SRC-1-4 peptide QKPTSGPQTPQAQQKSLLQQLLTE (the fourth LXXLL motif from the N-terminal side of SRC-1)]	207 % of control
Biotin-HGTSLKEKHKILHRLLQDSSSPVDL [TIF2 peptide HGTSLKEKHKILHRLLQDSSSPVDL (aa 679-703)]	267 % of control
Biotin-NKDVTLTSPLLVNLLQSDISAGHFGVNNKQ [ASC-2 NR-1 peptide NKDVTLTSPLLVNLLQSDISAGHFGVNNKQ (LXXLL motif on the N-terminal side of ASC-2)]	156 % of control

Each binder was assayed against T2, His-LXRβ/FLAG-RXRα heterodimer (ligand …) in the same assay as above.

Binder	% of control
Biotin-DGTPPPQEAEEPSLLKKLLLAPANT [PGC-1α peptide DGTPPPQEAEEPSLLKKLLLAPANT (aa 130-154)]	191 % of control
Biotin-QKPTSGPQTPQAQQKSLLQQLLTE [SRC-1-4 peptide QKPTSGPQTPQAQQKSLLQQLLTE (the fourth LXXLL motif from the N-terminal side of SRC-1)]	155 % of control

The binders below were run against T3, His-LXRβ/FLAG-RXRα heterodimer (ligand binding domains of human LXRβ and human RXRα) (human) in the same assay as above.

Binder	% of control
Biotin-SPAMREAPTSLSQLLDNSGAPNVTIKPPGL [ASC-2 NR-2 peptide … (LXXLL motif on the C-terminal side of ASC-2)]	120 % of control
Biotin-CPSSHSSLTERHKILHRLLQEGSPS [SRC-1-2 peptide … (the second LXXLL motif from the N-terminal side of SRC-1)]	120 % of control
Biotin-KESKDHQLLRYLLDKDEKDL [SRC-1-3 peptide … (the third LXXLL motif from the N-terminal side of SRC-1)]	111 % of control
Biotin-HGTSLKEKHKILHRLLQDSSSPVDL [TIF2 peptide … (aa 679-703)]	108 % of control
Biotin-CCFCGEDHPRQGSILYSLLTSSKQT (cysteine pairing not given here) [DAX1 peptide … (aa 132-156)]	116 % of control
Biotin-KNPTSCSRRFYQLTKLLDSVQPIAR [PNRC peptide … (aa 848-872)]	109 % of control
Biotin-KQEPVSPKKKENALLRYLLDKDDTK [TIF2 NRB2 peptide … (aa 731-755)]	125 % of control
Biotin-GHGEDFSKVSQNPILTSLLQITGNG [TRAP220 peptide … (aa 590-614)]	111 % of control
Biotin-HSKASWAEFSILRELLAQDVLCD [PERC NRB2 peptide … (aa 332-354)]	104 % of control
Biotin-SPKKKENNALLRYLLDRDDPSDALSK [ACTR NRB3 peptide … (aa 728-753)]	129 % of control
Biotin-NKDVTLTSPLLVNLLQSDISAGHFGVNNKQ [ASC-2 NR-1 peptide … (LXXLL motif on the N-terminal side of ASC-2)]	114 % of control

Target: T1, His-LXRα/FLAG-RXRα heterodimer (ligand …)
Test: as above
Remark: another data set of the same source
Experimental: as §1, §2, §3

Binder	% of control
Biotin-CCFCGEDHPRQGSILYSLLTSSKQT (cysteine pairing not given here) [DAX1 peptide CCFCGEDHPRQGSILYSLLTSSKQT (aa 132-156)]	158 % of control
Biotin-KNPTSCSRRFYQLTKLLDSVQPIAR [PNRC peptide KNPTSCSRRFYQLTKLLDSVQPIAR (aa 848-872)]	140 % of control
Biotin-KQEPVSPKKKENALLRYLLDKDDTK [TIF2 NRB2 peptide KQEPVSPKKKENALLRYLLDKDDTK (aa 731-755)]	268 % of control
Biotin-GHGEDFSKVSQNPILTSLLQITGNG [TRAP220 peptide GHGEDFSKVSQNPILTSLLQITGNG (aa 590-614)]	131 % of control
Biotin-HSKASWAEFSILRELLAQDVLCD [PERC NRB2 peptide HSKASWAEFSILRELLAQDVLCD (aa 332-354)]	127 % of control
Biotin-SPKKKENNALLRYLLDRDDPSDALSK [ACTR NRB3 peptide SPKKKENNALLRYLLDRDDPSDALSK (aa 728-753)]	167 % of control

Target: T1, His-LXRα/FLAG-RXRα heterodimer (ligand …)
Test: FRET (665/620 nm), anti-His tag antibody + streptavidin, biotinylated peptide; with Compound B, relative to DMSO-only control
Remark: another data set of the same source

Binder	% of control
Biotin-DGTPPPQEAEEPSLLKKLLLAPANT [PGC-1α peptide DGTPPPQEAEEPSLLKKLLLAPANT (aa 130-154)]	207 % of control
Biotin-SPAMREAPTSLSQLLDNSGAPNVTIKPPGL (also called ASC2 MR-2) [ASC-2 NR-2 peptide SPAMREAPTSLSQLLDNSGAPNVTIKPPGL (LXXLL motif on the C-terminal side of ASC-2)]	137 % of control
Biotin-CPSSHSSLTERHKILHRLLQEGSPS [SRC-1-2 peptide CPSSHSSLTERHKILHRLLQEGSPS (the second LXXLL motif from the N-terminal side of SRC-1)]	182 % of control
Biotin-KESKDHQLLRYLLDKDEKDL [SRC-1-3 peptide KESKDHQLLRYLLDKDEKDL (the third LXXLL motif from the N-terminal side of SRC-1)]	112 % of control
Biotin-QKPTSGPQTPQAQQKSLLQQLLTE [SRC-1-4 peptide QKPTSGPQTPQAQQKSLLQQLLTE (the fourth LXXLL motif from the N-terminal side of SRC-1)]	128 % of control
Biotin-HGTSLKEKHKILHRLLQDSSSPVDL [TIF2 peptide HGTSLKEKHKILHRLLQDSSSPVDL (aa 679-703)]	157 % of control
Biotin-NKDVTLTSPLLVNLLQSDISAGHFGVNNKQ [ASC-2 NR-1 peptide NKDVTLTSPLLVNLLQSDISAGHFGVNNKQ (LXXLL motif on the N-terminal side of ASC-2)]	116 % of control

What follows are binders tested against T2, His-LXRβ/FLAG-RXRα heterodimer (ligand …) in the same assay as above.

Binder	% of control
Biotin-DGTPPPQEAEEPSLLKKLLLAPANT [PGC-1α peptide DGTPPPQEAEEPSLLKKLLLAPANT (aa 130-154)]	195 % of control
Biotin-QKPTSGPQTPQAQQKSLLQQLLTE [SRC-1-4 peptide QKPTSGPQTPQAQQKSLLQQLLTE (the fourth LXXLL motif from the N-terminal side of SRC-1)]	144 % of control

These binders were tested against T3, His-LXRβ/FLAG-RXRα heterodimer (ligand binding domains of human LXRβ and human RXRα) (human) in the same assay as above.

Binder	% of control
Biotin-SPAMREAPTSLSQLLDNSGAPNVTIKPPGL [ASC-2 NR-2 peptide … (LXXLL motif on the C-terminal side of ASC-2)]	116 % of control
Biotin-CPSSHSSLTERHKILHRLLQEGSPS [SRC-1-2 peptide … (the second LXXLL motif from the N-terminal side of SRC-1)]	119 % of control
Biotin-KESKDHQLLRYLLDKDEKDL [SRC-1-3 peptide … (the third LXXLL motif from the N-terminal side of SRC-1)]	108 % of control
Biotin-HGTSLKEKHKILHRLLQDSSSPVDL [TIF2 peptide … (aa 679-703)]	114 % of control
Biotin-CCFCGEDHPRQGSILYSLLTSSKQT (cysteine pairing not given here) [DAX1 peptide … (aa 132-156)]	120 % of control
Biotin-KNPTSCSRRFYQLTKLLDSVQPIAR [PNRC peptide … (aa 848-872)]	107 % of control
Biotin-KQEPVSPKKKENALLRYLLDKDDTK [TIF2 NRB2 peptide … (aa 731-755)]	124 % of control
Biotin-GHGEDFSKVSQNPILTSLLQITGNG [TRAP220 peptide … (aa 590-614)]	116 % of control
Biotin-HSKASWAEFSILRELLAQDVLCD [PERC NRB2 peptide … (aa 332-354)]	115 % of control
Biotin-SPKKKENNALLRYLLDRDDPSDALSK [ACTR NRB3 peptide … (aa 728-753)]	103 % of control
Biotin-NKDVTLTSPLLVNLLQSDISAGHFGVNNKQ [ASC-2 NR-1 peptide … (LXXLL motif on the N-terminal side of ASC-2)]	115 % of control
